Sequences and labels used below:
B1: HDV Ribozyme (parent)
chain: GGCCGGCAUGGUCCCAGCCUCCUCGCUGGCGCCGGCUGGGCAACAUUCCGAGGGGACCGUCCCCUCGGUAAUGGCGAAUGGGACCCA

In the data set the parent is B1. Briefly: self-cleavage, relative activity (ratio to wild type); higher = more cleavage; co-transcriptional.
Regarding A8U A56U, the self-cleavage amounted to 0.705.

Regarding G1C U9C, the self-cleavage worked out at 0.

For the variant G17C U79G, the self-cleavage is 0.128.

Take C18U U37G: the self-cleavage worked out at 0.128.

In the case of G11A G17A, the self-cleavage is 0.544.

As to C4G G76C, the self-cleavage was 0.494.

For A8U C57U, the self-cleavage came to 0.91.

For the variant U23A G28U, the self-cleavage amounted to 0.116.

With G6A C22U, the self-cleavage stood at 0.4.

C22G C32G: the self-cleavage came out at 0.

In the case of A42U C49G, the self-cleavage was 0.312.

As to C22U G38A, the self-cleavage came to 0.931.

Take C61A G81A: the self-cleavage turned out to be 0.354.

Regarding G34U A43C, the self-cleavage is 0.243.

With A45G C57U, the self-cleavage was determined as 1.11.

With C62G U69C, the self-cleavage turned out to be 0.534.

Take C62U A71G: the self-cleavage amounted to 0.997.

With C14G G81U, the self-cleavage came to 0.923.

In the case of G53A G54C, the self-cleavage is 0.857.

With C44G C85U, the self-cleavage came to 0.892.

In the case of C22U U23A, the self-cleavage worked out at 0.845.

For G25C C64U, the self-cleavage turned out to be 0.0369.

Turning to C18A U72C, the self-cleavage came out at 0.0437.

For the variant U12A C58U, the self-cleavage turned out to be 0.302.

Consider C13A C24G, for which the self-cleavage amounted to 0.117.

Regarding C75U A78U, the self-cleavage was found to be 0.264.

In the case of C19G G54A, the self-cleavage was determined as 0.116.

C18G C66A: the self-cleavage came out at 0.0437.

On to A42U C66G, for which the self-cleavage is 0.386.

G52C G81U: the self-cleavage was 0.579.

As to G35C G39A, the self-cleavage is 0.178.

In the case of G31A G67C, the self-cleavage came to 0.513.

In the case of C22A A56U, the self-cleavage turned out to be 0.323.

For G25C U60A, the self-cleavage is 0.256.

On to U23G C86G, for which the self-cleavage was 0.525.

Take G10U G17U: the self-cleavage amounted to 0.487.

Take G29C C86A: the self-cleavage is 0.0519.

For C3U U65A, the self-cleavage was found to be 0.872.

Regarding A8C G50C, the self-cleavage was 1.04.

In the case of A56G C84U, the self-cleavage was 0.973.

For G28U C48A, the self-cleavage was determined as 0.125.

As for C33G C84U, the self-cleavage is 0.0386.

Take C33U A43U: the self-cleavage stood at 0.356.

For C21G C84A, the self-cleavage was found to be 0.138.

Turning to G35A C84A, the self-cleavage amounted to 0.62.

For the variant U27A C64U, the self-cleavage came out at 0.855.

Turning to G38U U79A, the self-cleavage worked out at 0.

Take C61G C62G: the self-cleavage worked out at 1.05.

As for U37G U60G, the self-cleavage is 0.0831.

For the variant U37C G76A, the self-cleavage turned out to be 0.972.

With C58U G76U, the self-cleavage was determined as 1.02.

Take C15A A83G: the self-cleavage amounted to 0.284.

As for G17A G40A, the self-cleavage was 0.655.

Consider G17U A45C, for which the self-cleavage stood at 0.161.

Turning to C4G C24A, the self-cleavage came out at 0.102.

Take C18G G74A: the self-cleavage is 0.0449.

On to G53A U60G, for which the self-cleavage came out at 1.01.

On to G11C C19U, for which the self-cleavage turned out to be 0.0302.

For the variant G74A C85A, the self-cleavage was determined as 0.657.

Consider A70C G73A, for which the self-cleavage amounted to 0.407.

For U23C U72G, the self-cleavage was 0.532.

Consider C48G U65G, for which the self-cleavage is 0.504.

For the variant G28C C36G, the self-cleavage amounted to 0.0773.

With U27G G31C, the self-cleavage is 0.344.

Regarding G28C G74U, the self-cleavage came out at 0.0692.

Take G2U U27A: the self-cleavage is 0.0767.

With C24A C63A, the self-cleavage was 0.882.

For G31C G73A, the self-cleavage was 0.0346.

On to C26U G29A, for which the self-cleavage is 0.332.

As for C44A C61U, the self-cleavage came out at 0.758.

For the variant G29C G53U, the self-cleavage turned out to be 0.0723.

As to G6C A43C, the self-cleavage is 0.0519.

For the variant G38C A70C, the self-cleavage amounted to 0.291.

As for G17C U69C, the self-cleavage is 0.269.

As for G11U U72A, the self-cleavage came to 0.287.

With G11U C58A, the self-cleavage stood at 0.326.

Regarding G29U C61U, the self-cleavage is 0.122.

As for U37C A51U, the self-cleavage is 0.923.

With G25U A71C, the self-cleavage worked out at 0.213.

Regarding C15U G74A, the self-cleavage was 0.383.

Regarding C4G C14G, the self-cleavage is 0.

In the case of U23A U47C, the self-cleavage is 1.14.

On to C4G G25C, for which the self-cleavage came to 0.

As to C63A G68A, the self-cleavage turned out to be 0.801.

Take C63A G68U: the self-cleavage is 0.764.

A16U A71G: the self-cleavage was found to be 0.782.

As for G2A G55U, the self-cleavage was found to be 0.271.

C66G C75G: the self-cleavage amounted to 0.383.

Turning to G17A A42C, the self-cleavage came out at 0.229.

In the case of U20A A70C, the self-cleavage stood at 0.104.

C32A G67A: the self-cleavage stood at 0.211.

For the variant C19A A83G, the self-cleavage was 0.122.

For the variant G55C C86A, the self-cleavage came to 1.03.

Turning to G50U G81C, the self-cleavage was found to be 0.479.

G25C C41U: the self-cleavage came out at 0.0707.

On to C22U U46A, for which the self-cleavage is 0.295.

In the case of C41G C57A, the self-cleavage came to 1.05.

In the case of G5A A43G, the self-cleavage was found to be 0.131.

Turning to G59A C86G, the self-cleavage worked out at 1.01.

Take C19G G81A: the self-cleavage was found to be 0.117.

With C4G C84U, the self-cleavage worked out at 0.249.

In the case of G28A U46C, the self-cleavage was 0.0594.

With U23A G80U, the self-cleavage was determined as 0.113.

In the case of G28A G52U, the self-cleavage is 0.0475.

For A70G G81A, the self-cleavage came out at 0.378.

As for A70G G81U, the self-cleavage stood at 0.0978.

Regarding C22U A56C, the self-cleavage was 0.525.

Regarding C44U G52A, the self-cleavage is 0.831.

As for G35A A42G, the self-cleavage was 0.17.

As for G67U A83C, the self-cleavage is 0.635.

Consider C15G C66G, for which the self-cleavage was 0.475.

In the case of G29C A70C, the self-cleavage was determined as 0.0536.

With C58U U69G, the self-cleavage is 0.965.

Consider G2C U65A, for which the self-cleavage amounted to 0.

U27G G74C: the self-cleavage stood at 0.302.

Regarding C32G U69G, the self-cleavage came out at 0.0504.

On to A51G G54A, for which the self-cleavage worked out at 0.831.

For G39C U60G, the self-cleavage worked out at 0.185.

Take A43U G74A: the self-cleavage turned out to be 0.261.

On to A8C G55C, for which the self-cleavage came to 1.03.

For the variant U23G A71G, the self-cleavage was found to be 0.831.

As for G2C C36U, the self-cleavage turned out to be 0.0799.

Turning to C15A G28C, the self-cleavage is 0.0449.

As to C57G A71G, the self-cleavage is 1.08.

Turning to C22U C84U, the self-cleavage stood at 0.29.

As for A8C C75G, the self-cleavage was 0.277.

Regarding C24U G53A, the self-cleavage was found to be 0.87.

Take G74U C85A: the self-cleavage turned out to be 0.415.

Turning to C3U C58G, the self-cleavage was 0.767.

As for C4G U79G, the self-cleavage was 0.

For the variant U79C C85U, the self-cleavage stood at 0.499.

Take A45G C75A: the self-cleavage turned out to be 0.249.

Turning to C15U C24G, the self-cleavage was determined as 0.

With C13U U20C, the self-cleavage is 0.0978.

U23C A70G: the self-cleavage was found to be 0.95.

With C18U G52A, the self-cleavage stood at 0.737.

Regarding G29A G55A, the self-cleavage was determined as 0.208.

Turning to G2C G82U, the self-cleavage is 0.

C7A C63G: the self-cleavage turned out to be 0.35.

Consider G29A C86G, for which the self-cleavage stood at 0.138.

For the variant C14G A43U, the self-cleavage worked out at 0.138.

Consider U65G U79A, for which the self-cleavage turned out to be 0.306.

In the case of G55U U65G, the self-cleavage came to 0.847.

As for U69C G76U, the self-cleavage is 1.29.

Turning to C14U G39C, the self-cleavage came to 0.262.

Turning to G1U C63A, the self-cleavage was found to be 0.391.

For U69A G81C, the self-cleavage worked out at 0.325.

In the case of G2A A16G, the self-cleavage came to 0.237.

With C19G C63A, the self-cleavage came out at 0.0936.

For A43C G54C, the self-cleavage came out at 0.403.

G17A C61U: the self-cleavage was determined as 0.904.

On to C36G C84G, for which the self-cleavage stood at 0.116.

Turning to G11A C18U, the self-cleavage stood at 0.12.

On to U23A C84U, for which the self-cleavage worked out at 0.762.

With U12C U37C, the self-cleavage amounted to 0.35.

Consider G25U G81A, for which the self-cleavage stood at 0.124.

Consider G2A U79G, for which the self-cleavage was found to be 0.089.

In the case of C3A C21A, the self-cleavage was 0.0339.

Turning to C44A G54A, the self-cleavage was 0.759.

Take C36A C58A: the self-cleavage is 0.227.

Regarding U47C G82U, the self-cleavage amounted to 0.111.

For C18A A71G, the self-cleavage came to 0.0739.

C7U A45U: the self-cleavage stood at 0.415.

For the variant G55C G59A, the self-cleavage stood at 1.06.

Turning to C13U U27G, the self-cleavage was determined as 1.06.

For the variant C24G U65G, the self-cleavage was 0.233.

For C33A C48A, the self-cleavage is 0.314.

These data come from the RNAGym collection of RNA variant scans (doi:10.7554/elife.80360).
